Test results published in US20050255113A1, “Methods and compositions for inhibiting polypeptide accumulation associated with neurological disorders” (New York State Department of Health and Abgenix, Inc., priority 1999, published 2005).

Legend:
[1] = biological target: T1, biotinylated HD-peptide (HD peptide (1-17), N-terminal huntingtin) (Homo sapiens, UniProt P42858); test: Kinetic binding analysis by surface plasmon resonance (BIAcore 2000); conditions: corresponding to the Kd
T1 construct: host or cells: chemical peptide synthesis
Method: A range of concentration (60 to 100 nM) of anti-huntingtin intrabody C4 sFv was used to measure the association rate (kon) on 50 RU of biotinylated-HD peptide bound to a streptavidin sensor chip.
The Kd of purified scFv clone C4 was determined by using surface plasmon resonance in a BIAcore 2000 (Biacore AG, Uppsala, Sweden). In a BIAcore flow cell, approximately 50 resonance units (RU) of biotinylated HD-peptide (250 nM in 1M NaCl and 50 mM NaOH) was coupled to a streptavidin sensor chip, pre-conditioned with three consecutive 1-minute injections of 1 M NaCl in 50 mM NaOH. […] Association was measured under a continuous flow of 5 μl/min with a concentration range from 60 to 100 nM, The kon was determined from a plot of In (dR/dt)/t versus concentration, where R is response and t is time (Karlsson et al., J. Immunol. Methods 145: 229-240 (1991)). The koff was determined from the dissociation part of the sensorgram at the highest concentration of intrabody analyzed by using a flow rate of 20 μl/min. The Kd was calculated as koff/kon.
(§1) To characterize the precise binding properties of the intrabody of the invention, further qualitative and quantitative studies of sFv binding to immobilized antigen were conducted in vitro. […] The kinetics of association and dissociation were determined for the C4 sFv antibody in the BIAcore 2000 (FIG. 11B).

[2] = test system: N-terminal HD sequence (Nt-HD); test: ELISA of sFv binding to immobilized GST-fusion proteins / biotinylated Nt-HD peptide; conditions: plates with streptavidin, GST-HD-42Q, GST-HD-65Q, GST-DRPLA-35Q
Method: As described in Example 2, four rounds of selection were performed with decreasing concentrations of antigen at each round (100 nM, 50 nM, 10 nM, 1 nM). After the third round, bacterial clones were screened to isolate those which secreted sFv molecules specific to the N-terminal HD sequence. Screening was performed by ELISA. Bacterial supernatants containing secreted sFv were incubated with either 2% bovine serum albumin (BSA), as negative control, or with 2% BSA containing biotinylated antigen (0.1 μg/well, final concentration) in pre-blocked microtiter plates overnight at 4° C. The mixtures were then transferred to streptavidin-coated (0.1 μg/well, final concentration) microtiter plates. […] Bound IgG was detected with alkaline phosphatase conjugated to goat anti-mouse IgG.
Four rounds of selection were performed with decreasing concentrations of antigen at each round (i.e., 100 nM, 50 nM, 10 nM, 1 nM). […] Bound sFv was detected with α-9E10 IgG followed by alkaline phosphatase conjugated goat anti-mouse IgG.
as §1

[3] = biological target: T2, GST-DRPLA-35Q (Homo sapiens, UniProt P54259, DUP487-502); test: Affinity purification of sFv with GST-fusion antigens (glutathione-Sepharose, SDS-PAGE, immunoblot); format: binding; conditions: 3 μg sFv with 4 μg antigen, 1 hr room temperature
T2 construct: made in house; host or cells: E. coli BL21
T2 sequence (P54259 with tags, fused parts or gaps DUP487-502): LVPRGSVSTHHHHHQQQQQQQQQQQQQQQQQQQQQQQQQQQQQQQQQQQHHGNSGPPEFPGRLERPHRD
Method: (§2) About 3 ug of N-HD-C4 sFv was mixed with 4 ug of either GST-DRPLA-Q35 or GST-HD-Q25 or GST-HD-Q42 in PBS (200 μl final volume) and rocked for 1 h at RT. Twenty microliters of glutathione Sepharose 4B beads (50% slurry, pre-washed with PBS) was added and incubated for another 30 min at RT to capture the sFv/GST fusion protein complexes. The beads were harvested by centrifugation at 12,000×g for 10 sec and washed thrice with 1 ml PBS. The complexes were eluted with 10 μl of 50 mM Tris pH 8.0 containing 10 mM reduced glutathione for 10 min at RT. Tubes were then centrifuged at 12,000×g for 1 min and the supernatants containing the soluble complexes were transferred to new tubes, mixed with an equal volume of 2× SDS-sample buffer and heated at 95° C. before being loaded on SDS-PAGE.
(§3) About 3 μg of each clone were incubated in solution for 1 hour at room temperature with 4 ug of either GST-DRPLA-Q35, GST-HD-Q25 or GST-HD-Q42. Then, a 10 μl bed volume of glutathione-Sepharose 4B (Pharmacia) was added to each tube to precipitate the GST-fusion protein/sFv complexes. After 30 min incubation, tubes were centrifuged and the pellets washed 3 times with 1 ml PBS. The complexes were eluted from glutathione-Sepharose beads by addition of 10 mM reduced glutathione to the pellets.
(§4) After centrifugation, supernatants containing the eluted complexes were transferred to new tubes and mixed with an equal volume of 2× SDS-loading buffer. The samples were boiled and the proteins separated on a 12% SDS-PAGE. Protein bands were visualized by Coomassie blue staining, and/or transferred to nitrocellulose membranes in order to detect the sFv molecules by immunoblot.
(§5) The binding specificities of the selected sFv clones were tested by affinity binding to a full range of antigens, as follows: (a) using sample numbers that correspond to the experimental results in FIGS. 9 and 10, about 3 μg of α-Nt-HD-C4 sFv clone 1 (lanes 2-4) or α-Nt-HD-C4 sFv clone 2 (lanes 5-7) were mixed with 4 μg of the following antigens and incubated in solution for 1 hr at room temperature (lanes 2 and 5) GST-DRPLA-35Q, (lanes 3 and 6) GST-HD-25Q, (4 and 7) GST-HD-42Q; (b) a 10 μl bed volume of glutathione-Sepharose 4B (Pharmacia) was added to each tube to bind all GST-containing protein complexes; the beads were washed with 10 mM glutathione solution, which eluted the GST-antigen or the sFv-antigen complex, and these eluates were analyzed by SDS-PAGE. Protein bands were visualized by Coomassie blue staining (FIG. 9) and were also transferred to nitrocellulose membranes in order to detect the sFv molecules by immunoblot blot (FIG. 10).

[4] = test system: GST-HD-25Q, GST-HD-42Q; test: as above; format: binding; conditions: 3 μg sFv with 4 μg antigen, 1 hr room temperature; Coomassie and immunoblot
GST-HD-25Q, GST-HD-42Q, sequence (as listed by the source): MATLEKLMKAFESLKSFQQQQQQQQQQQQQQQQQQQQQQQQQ
Method: as §2, §3, §4, §5

B1: C4 sFv: human single-chain Fv intrabody from phage display, specific for the 17 N-terminal residues of huntingtin; SEQ ID NO: 6 (protein)
scFv: QVQLQESGGGLVQPGGSLRLSCAASGFTFSSYSMSWVRQAPGKGLEWVAVISYDGSNKYYADSVKGRFTISRDNSKNTLYLQMNSLRAEDTAVYYCARDRYFDLWGRGTLVTVSSGGGGSGGGGSGGGGSQSALTQPASVSGSPGQSITISCTGTSSDIGAYNYVSWYQQYPGKAPKLLIYDVSNRPSGISNRFSGSKSGDTASLTISGLQAEDEADYYCSSFANSGPLFGGGTKVTVL
[1]
  binding affinity (Ka): 1.3e+08 M⁻¹
[2]
  ELISA binding specificity: binds specifically to the N-terminal HD sequence
[2]; listed as cc-Nt-HD-C4 sFv
  ELISA binding specificity: reacted preferentially with antigens containing the Nt-HD flanking peptide sequence
[3]
  sFv co-purified with GST-DRPLA-Q35: not detected
[4]
  sFv co-purified with antigens containing the Nt-HD sequence: present at about the same intensity as the other proteins
